Publication PMC12016552, “Growth-coupled continuous directed evolution by MutaT7 enables efficient and automated enzyme engineering” (Applied and Environmental Microbiology, 2025)
Where a chain is given by its changes, count along the chain named. Names may count otherwise.

Substrate: O=S1(=O)OC(c2ccc(O)c(Cl)c2)(c2ccc(O[C@@H]3O[C@H](CO)[C@H](O)[C@H](O)[C@H]3O)c(Cl)c2)c2ccccc21
Experiment: purified protein
Assay type: biochemical, Pyrococcus furiosus
Conditions: 25 °C, PBS pH 7.4 (CPRG assay as described for screening; screening buffer contained 2.7% glucose)

B1: CelB (Pyrococcus furiosus) (protein)
chain: MKFPKNFMFGYSWSGFQFEMGLPGSEVESDWWVWVHDKENIASGLVSGDLPENGPAYWHLYKQDHDIAEKLGMDCIRGGIEWARIFPKPTFDVKVDVEKDEEGNIISVDVPESTIKELEKIANMEALEHYRKIYSDWKERGKTFILNLYHWPLPLWIHDPIAVRKLGPDRAPAGWLDEKTVVEFVKFAAFVAYHLDDLVDMWSTMNEPNVVYNQGYINLRSGFPPGYLSFEAAEKAKFNLIQAHIGAYDAIKEYSEKSVGVIYAFAWHDPLAEEYKDEVEEIRKKDYEFVTILHSKGKLDWIGVNYYSRLVYGAKDGHLVPLPGYGFMSERGGFAKSGRPASDFGWEMYPEGLENLLKYLNNAYELPMIITENGMADAADRYRPHYLVSHLKAVYNAMKEGADVRGYLHWSLTDNYEWAQGFRMRFGLVYVDFETKKRYLRPSALVFREIATQKEIPEELAHLADLKFVTRK
notes: homotetramer
For B1, the Km was 29.1 ± 1.9 µM and the kcat was 0.89 ± 0.04 s⁻¹.

B2: CelB (Pyrococcus furiosus; K436N/L412W/Y416H) (protein)
chain: B1 chain with L412W, Y416H, K436N
notes: homotetramer
For B2, the Km (variant W10) was 17.6 ± 3.6 µM and the kcat (variant W10) was 1.15 ± 0.18 s⁻¹.

B3: CelB (Pyrococcus furiosus; E365K/G72E) (protein)
chain: B1 chain with G72E, E365K
notes: homotetramer
In the case of B3, the Km (variant AA10) is reported as 19.3 ± 2.5 µM and the kcat (variant AA10) is reported as 1.16 ± 0.10 s⁻¹.
